The labels stand for the following.
B1: Retinoic acid receptor RXR-alpha, residues 132 to 208; numbered along this chain, P19793 (parent)
chain: KHICAICGDRSSGKHYGVYSCEGCKGFFKRTVRKDLTYTCRDNKDCLIDKRQRNRCQYCRYQKCLAMGMKREAVQEE

± gives the uncertainty stated by the source.

In this data set the parent is B1. Nature of the data set: abundance fitness (aPCA) (normalised: wild type 0, dead -1); higher = more abundant; growth selection in yeast, the domain comes from the species named. The following applies: Homo sapiens.
Consider KHICAICGDRSSGKHYGVYSCEGCKGFFKRTVRKDLTYTCRDNKDCLIDKRQRNRCQYCRYQKCLASGMKREAVQEE [M67S], for which the abundance fitness is 0.019 ± 0.025. With KHICAICGDRSSGKHYGVYSCEGCKGFFKRTVRKDLTYTCRDNKDCLIDKRQRNRCQYCRYQKCLAYGMKREAVQEE [M67Y], the abundance fitness is -0.008 ± 0.031. With KHICAICGDRSSGKHYGVYSCEGCKGFFKRTVRKDLTYTCRDNKDCLIDKRQRNRCQYCRYQKCLAMGFKREAVQEE [M69F], the abundance fitness turned out to be 0.051 ± 0.031.

Consider KHICAICGDRSSGKHYGVYSCEGCKGFFKRTVRKDLTYTCRDNKDCLIDKRQRNRCQYCRYQKCLAMGIKREAVQEE [M69I], for which the abundance fitness was -0.275 ± 0.038. With KHICAICGDRSSGKHYGVYSCEGCKGFFKRTVRKDLTYTCRDNKDCLIDKRQRNRCQYCRYQKCLAMGEKREAVQEE [M69E], the abundance fitness was -0.322 ± 0.079. For the variant KHICAICGDRSSGKHYGVYSCEGCKGFFKRTVRKDLTYTCRDNKDCLIDKRQRNRCQYCRYQKCLAMGDKREAVQEE [M69D], the abundance fitness was -0.733 ± 0.075. KHICAICGDRSSGKHYGVYSCEGCKGFFKRTVRKDLTYTCRDNKDCLIDKRQRNRCQYCRYQKCLAMGVKREAVQEE [M69V]: the abundance fitness was -0.319 ± 0.038. On to KHICAICGDRSSGKHYGVYSCEGCKGFFKRTVRKDLTYTCRDNKDCLIDKRQRNRCQYCRYQKCLAMGAKREAVQEE [M69A], for which the abundance fitness was -0.069 ± 0.034. Take KHICAICGDRSSGKHYGVYSCEGCKGFFKRTVRKDLTYTCRDNKDCLIDKRQRNRCQYCRYQKCLAMGCKREAVQEE [M69C]: the abundance fitness was -0.09 ± 0.038. For KHICAICGDRSSGKHYGVYSCEGCKGFFKRTVRKDLTYTCRDNKDCLIDKRQRNRCQYCRYQKCLAMGRKREAVQEE [M69R], the abundance fitness is -0.875 ± 0.079.

As to KHICAICGDRSSGKHYGVYSCEGCKGFFKRTVRKDLTYTCRDNKDCLIDKRQRNRCQYCRYQKCLAMGQKREAVQEE [M69Q], the abundance fitness was -0.157 ± 0.049. On to KHICAICGDRSSGKHYGVYSCEGCKGFFKRTVRKDLTYTCRDNKDCLIDKRQRNRCQYCRYQKCLAMGGKREAVQEE [M69G], for which the abundance fitness was -0.159 ± 0.042.

For KHICAICGDRSSGKHYGVYSCEGCKGFFKRTVRKDLTYTCRDNKDCLIDKRQRNRCQYCRYQKCLAMGWKREAVQEE [M69W], the abundance fitness is -0.007 ± 0.052. Consider KHICAICGDRSSGKHYGVYSCEGCKGFFKRTVRKDLTYTCRDNKDCLIDKRQRNRCQYCRYQKCLAMGSKREAVQEE [M69S], for which the abundance fitness is -0.262 ± 0.032. Turning to KHICAICGDRSSGKHYGVYSCEGCKGFFKRTVRKDLTYTCRDNKDCLIDKRQRNRCQYCRYQKCLAMGTKREAVQEE [M69T], the abundance fitness is -0.343 ± 0.042. For the variant KHICAICGDRSSGKHYGVYSCEGCKGFFKRTVRKDLTYTCRDNKDCLIDKRQRNRCQYCRYQKCLAMGPKREAVQEE [M69P], the abundance fitness is -0.856 ± 0.1. On to KHICAICGDRSSGKHYGVYSCEGCKGFFKRTVRKDLTYTCRDNKDCLIDKRQRNRCQYCRYQKCLAMGHKREAVQEE [M69H], for which the abundance fitness is -0.548 ± 0.047. In the case of KHICAICGDRSSGKHYGVYSCEGCKGFFKRTVRKDLTYTCRDNKDCLIDKRQRNRCQYCRYQKCLAMGKKREAVQEE [M69K] it was -0.482 ± 0.074. The figure for KHICAICGDRSSGKHYGVYSCEGCKGFFKRTVRKDLTYTCRDNKDCLIDKRQRNRCQYCRYQKCLAMGLKREAVQEE [M69L] is -0.036 ± 0.028; for KHICAICGDRSSGKHYGVYSCEGCKGFFKRTVRKDLTYTCRDNKDCLIDKRQRNRCQYCRYQKCLAMVMKREAVQEE [G68V] it is -0.645 ± 0.057; for KHICAICGDRSSGKHYGVYSCEGCKGFFKRTVRKDLTYTCRDNKDCLIDKRQRNRCQYCRYQKCLAMIMKREAVQEE [G68I] it is -0.544 ± 0.049.

As for KHICAICGDRSSGKHYGVYSCEGCKGFFKRTVRKDLTYTCRDNKDCLIDKRQRNRCQYCRYQKCLAMNMKREAVQEE [G68N], the abundance fitness is -0.02 ± 0.033. The figure for KHICAICGDRSSGKHYGVYSCEGCKGFFKRTVRKDLTYTCRDNKDCLIDKRQRNRCQYCRYQKCLAMTMKREAVQEE [G68T] is -0.357 ± 0.036.

Regarding KHICAICGDRSSGKHYGVYSCEGCKGFFKRTVRKDLTYTCRDNKDCLIDKRQRNRCQYCRYQKCLAMEMKREAVQEE [G68E], the abundance fitness is -0.112 ± 0.057.

Take KHICAICGDRSSGKHYGVYSCEGCKGFFKRTVRKDLTYTCRDNKDCLIDKRQRNRCQYCRYQKCLAMWMKREAVQEE [G68W]: the abundance fitness is -0.302 ± 0.056. The figure for KHICAICGDRSSGKHYGVYSCEGCKGFFKRTVRKDLTYTCRDNKDCLIDKRQRNRCQYCRYQKCLAMDMKREAVQEE [G68D] is -0.06 ± 0.047; for KHICAICGDRSSGKHYGVYSCEGCKGFFKRTVRKDLTYTCRDNKDCLIDKRQRNRCQYCRYQKCLAMSMKREAVQEE [G68S] it is -0.108 ± 0.029; for KHICAICGDRSSGKHYGVYSCEGCKGFFKRTVRKDLTYTCRDNKDCLIDKRQRNRCQYCRYQKCLAMRMKREAVQEE [G68R] it is -0.238 ± 0.038. With KHICAICGDRSSGKHYGVYSCEGCKGFFKRTVRKDLTYTCRDNKDCLIDKRQRNRCQYCRYQKCLAMLMKREAVQEE [G68L], the abundance fitness was -0.362 ± 0.032. For KHICAICGDRSSGKHYGVYSCEGCKGFFKRTVRKDLTYTCRDNKDCLIDKRQRNRCQYCRYQKCLAMYMKREAVQEE [G68Y], the abundance fitness is -0.227 ± 0.04.

Turning to KHICAICGDRSSGKHYGVYSCEGCKGFFKRTVRKDLTYTCRDNKDCLIDKRQRNRCQYCRYQKCLAMQMKREAVQEE [G68Q], the abundance fitness is -0.054 ± 0.047. For the variant KHICAICGDRSSGKHYGVYSCEGCKGFFKRTVRKDLTYTCRDNKDCLIDKRQRNRCQYCRYQKCLAMHMKREAVQEE [G68H], the abundance fitness was -0.103 ± 0.035. With KHICAICGDRSSGKHYGVYSCEGCKGFFKRTVRKDLTYTCRDNKDCLIDKRQRNRCQYCRYQKCLAMMMKREAVQEE [G68M], the abundance fitness is -0.26 ± 0.046. The figure for KHICAICGDRSSGKHYGVYSCEGCKGFFKRTVRKDLTYTCRDNKDCLIDKRQRNRCQYCRYQKCLAMKMKREAVQEE [G68K] is -0.079 ± 0.056; for KHICAICGDRSSGKHYGVYSCEGCKGFFKRTVRKDLTYTCRDNKDCLIDKRQRNRCQYCRYQKCLAMCMKREAVQEE [G68C] it is -0.136 ± 0.041; for KHICAICGDRSSGKHYGVYSCEGCKGFFKRTVRKDLTYTCRDNKDCLIDKRQRNRCQYCRYQKCLAMFMKREAVQEE [G68F] it is -0.091 ± 0.031.

Values taken from the Human Domainome abundance scans (Beltran et al. 2025).
